Molecular target: T1, mouse DLK1 (moDLK1) (mouse, UniProt Q09163)
T1 chain: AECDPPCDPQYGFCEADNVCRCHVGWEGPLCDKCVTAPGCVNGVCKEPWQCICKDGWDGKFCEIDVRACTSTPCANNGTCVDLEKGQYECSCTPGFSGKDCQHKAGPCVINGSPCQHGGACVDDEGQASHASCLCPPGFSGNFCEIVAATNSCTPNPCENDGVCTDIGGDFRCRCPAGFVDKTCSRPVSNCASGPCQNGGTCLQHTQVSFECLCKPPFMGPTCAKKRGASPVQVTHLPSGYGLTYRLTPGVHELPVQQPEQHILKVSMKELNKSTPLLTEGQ

binding result: no binding
B1: I18 (antibody, V domains shown)
VH: QVQLKESGPGLVAPSQSLSITCTVSGFSLILYGVHWVRQPPGKGLEWLGLIWAGGSTNYNSALMSRLSISKDNSKSQVFLKMNSLQTDDTAMYYCVRKHSNYLAMDYWGQGTSVTVSS
VL: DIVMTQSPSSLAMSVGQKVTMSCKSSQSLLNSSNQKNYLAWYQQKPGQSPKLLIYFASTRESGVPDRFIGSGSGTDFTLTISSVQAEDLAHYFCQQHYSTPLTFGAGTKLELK

From patent US20260297185 (published 2026)
